Residue numbers refer to the chain shown, from its start. Numbers in names are those of the source.
B1: selenomethionine-labelled methylated SsoCas6 (enzyme, Sulfolobus solfataricus)
chain: PLIFKIGYNVIPLQDVILPTPSSKVLKYLIQSGKLLPSLNNLITSRDKYKPIFISHLGLNQRRIFQTNGNLKTISRGSKLSSTIAFSTQVNVLPELDEGVFETIYGKFHITIESVEIVEVEKLKEEVEKHMNDNIRVRFISPTLLSSKVLLPPSLSERYKRVNAGYSTLPSVGLIVAYAYNVYCNLIGKKEVEVRAFKFGVISNALSRIIGYDLHPVTIVIGEDSKGNLRKARGVMGWIEFDIPDEKLKRRALRYLLASSYLGIGRSRGIGFGEIKLEFIKREENH
modifications: (L)-selenomethionine derivative; surface lysine residues reductively methylated
notes: Cas6 paralogue Sso1437 of Sulfolobus solfataricus; residues 43-50 and 90-93 disordered in the crystal; Same construct as m1, labelled with selenomethionine and methylated for crystallography; also called (L)-selenomethionine derivative of SsoCas6; not shown: His6, N-terminal, cleaved
B2: Sulfolobus solfataricus Cas6 (Sso1437), wild type (enzyme)
chain: B1 chain
notes: Cas6 paralogue Sso1437 of Sulfolobus solfataricus, gene amplified by PCR from genomic DNA; expected molecular mass of the monomer 33 kDa; Cloned into pET151-TOPO; also called SsoCas6; wild-type (WT) enzyme; source: E. coli C43(DE3), purified (Ni-NTA, TEV cleavage, Superdex 75 gel filtration); not shown: His6, N-terminal, cleaved
B3: SsoCas6 K28H variant (enzyme, Sulfolobus solfataricus)
chain: B1 chain with K27H
notes: Cas6 paralogue Sso1437 of Sulfolobus solfataricus with K28H; Used in the calibrated gel filtration in place of the wild type; source: E. coli, purified according to the same protocol as the wild type; not shown: His6, N-terminal, cleaved

Experiments:
[1] = target: the molecule itself; assay: crystal structure; selenomethionine-labelled methylated protein; 0.05 M bicine pH 9.1, 28% PEG 3350; SAD, 2.8 Å; four monomers in the asymmetric unit; interface analysed with PDBePISA
[2] = target: the molecule itself; assay: SEC; calibrated gel filtration, HiLoad 26/600 Superdex 200, 20 mM Tris/HCl pH 7.5, 1 M NaCl; calibrated with Bio-Rad standards

| Protein | binding result [1] | stoichiometry N [2] |
| --- | --- | --- |
| B1 | binds |  |
| B2 |  | 2 |
| B3 |  | 2 |

Reference: PMC3652601, “Structure of a dimeric crenarchaeal Cas6 enzyme with an atypical active site for CRISPR RNA processing” (Biochemical Journal, 2013)
